This is an account of results in paper PMC4603797, “The Structural Differences between a Glycoprotein Specific F-Box Protein Fbs1 and Its Homologous Protein FBG3” (PLoS ONE, 2015).

In assay [1] the target is ribonuclease B (UniProt P61823). The experiment in a line: pull-down. As to conditions: read off a plot; for percent of parent: parent: est. 100; for other: Relative RNase B binding (% of Skp1–Fbs1 wild type control): parent: n.d.
Assay [2] shares this target. The experiment in a line: pull-down. As to conditions: parent: est. 100; read off a plot.
A further assay addresses T1, Fbs1 SBD T215P (murine, UniProt Q80UW2 117-297, T215P).
T1 construct: Fbs1/FBXO2, murine, SBD residues 117-297; Made with the KOD-Plus Mutagenesis kit; source: E. coli (pET15b), purified (Ni-NTA, gel filtration)
T1 sequence (looked up): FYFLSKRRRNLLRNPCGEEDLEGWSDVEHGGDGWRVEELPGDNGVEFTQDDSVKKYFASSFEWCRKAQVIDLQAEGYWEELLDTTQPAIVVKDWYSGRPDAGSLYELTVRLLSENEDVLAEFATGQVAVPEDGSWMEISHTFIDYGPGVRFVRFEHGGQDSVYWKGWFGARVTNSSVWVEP
The experiment in a line: pull-down; His-tagged Fbs1 SBDs (15 μg) immobilised on Ni-NTA agarose, incubated with 10.7 μg RNase B at 4°C for 1 h; 20 mM Tris-HCl pH 7.5, 20 mM imidazole, 500 mM NaCl; SDS-PAGE, CBB staining, densitometry. The following applies: both partners purified.

In another assay the target is T2, Fbs1 SBD A217C (murine, UniProt Q80UW2 117-297, A217C).
T2 construct: Fbs1/FBXO2, murine, SBD residues 117-297; Made with the KOD-Plus Mutagenesis kit; source: E. coli (pET15b), purified (Ni-NTA, gel filtration)
T2 sequence (looked up): T1 sequence (looked up) with P99T, A101C
The assay is described as above. The following applies: both partners purified.

Assay [3] has as its target T3, SBD of Fbs1 (117–297), wild type (murine, UniProt Q80UW2 117-297).
T3 construct: In pET15b; also called Fbs1 SBD; Fbs1 wild type; source: E. coli Rosetta (DE3), purified (Ni-NTA, gel filtration)
T3 sequence (looked up): T1 sequence (looked up) with P99T
Described as above. As to conditions: both partners purified.

The next assay concerns the target T4, Fbs1 SBD L220K (murine, UniProt Q80UW2 117-297, L220K).
T4 construct: Fbs1/FBXO2, murine, SBD residues 117-297; Made with the KOD-Plus Mutagenesis kit; source: E. coli (pET15b), purified (Ni-NTA, gel filtration)
T4 sequence (looked up): T1 sequence (looked up) with P99T, L104K
The assay is described as above. The following applies: both partners purified.

Changes are numbered by the printed parent chain.

For the molecule “SBD of Fbs1 (117–297), wild type (from UniProt Q80UW2) loops β2-3/β5-6/β7-8/β9-10 of Fbs1 replaced by those of FBG3”, the percent of parent with ribonuclease B [1] was 2.5%.

Turning to “SBD of Fbs1 (117–297), wild type (from UniProt Q80UW2) loops β2-3/β5-6 of Fbs1 replaced by those of FBG3”, the percent of parent with ribonuclease B [1] was found to be 12%. Still for that read-out and setting: the figure for “SBD of Fbs1 (117–297), wild type (from UniProt Q80UW2) loop β2-3 of Fbs1 replaced by that of FBG3” is 62%; for “SBD of Fbs1 (117–297), wild type (from UniProt Q80UW2) loop β9-10 of Fbs1 replaced by that of FBG3” it is 110%. With “SBD of Fbs1 (117–297), wild type (from UniProt Q80UW2) loop β5-6 of Fbs1 replaced by that of FBG3”, the percent of parent was 28% with ribonuclease B [1] and 25% with ribonuclease B [2].

For the molecule “Skp1–FBG3 complex, wild type (His-tagged Skp1) (from UniProt P63208;Q9H4M3) loops β2-3/β5-6/β7-8/β9-10 of FBG3 replaced by those of Fbs1”, the other: Relative RNase B binding (% of Skp1–Fbs1 wild type control) with ribonuclease B [1] worked out at 78%.

Take “Skp1–FBG3 complex, wild type (His-tagged Skp1) (from UniProt P63208;Q9H4M3) loops β2-3/β5-6/β7-8 of FBG3 replaced by those of Fbs1”: the other: Relative RNase B binding (% of Skp1–Fbs1 wild type control) with ribonuclease B [1] is 84%. For “SBD of Fbs1 (117–297), wild type (from UniProt Q80UW2) loop β7-8 of Fbs1 replaced by that of FBG3”, the percent of parent in the assay with ribonuclease B [1] was 96%.

B1: ribonuclease B (enzyme, bovine, UniProt P61823 27-150, looked up)
chain: KETAAAKFERQHMDSSTSAASSSNYCNQMMKSRNLTKDRCKPVNTFVHESLADVQAVCSQKNVACKNGQTNCYQSYSTMSITDCRETGSSKYPNCAYKTTQANKHIIVACEGNPYVPVHFDASV
modifications: a single high-mannose oligosaccharide
notes: ribonuclease B (glycosylated pancreatic ribonuclease), bovine pancreas; The Fbs proteins recognise the N-glycan of this glycoprotein; also called RNase B; source: bought: Sigma Aldrich (from bovine pancreas)
In the case of B1, the binding result (in the assay with Fbs1 SBD T215P; with Fbs1 SBD A217C; in assay [3]; with Fbs1 SBD L220K) was “binds” in each case.
